Assay results published in patent US20160024210A1 (AstraZeneca / MedImmune, published 2016).

Legend:
[1] = target: T1, human H7CR (B7-H7 counter-receptor) (human, UniProt Q96BF3 23-282); assay: flow cytometry, 5 µg/ml mAb on H7CR CHO stable transfectants [C]
T1 construct: Used for H7CR on CHO.hH7CR transfectants, human T cells and tonsil tissue; also called B7-H7CR; CD28H
T1 sequence: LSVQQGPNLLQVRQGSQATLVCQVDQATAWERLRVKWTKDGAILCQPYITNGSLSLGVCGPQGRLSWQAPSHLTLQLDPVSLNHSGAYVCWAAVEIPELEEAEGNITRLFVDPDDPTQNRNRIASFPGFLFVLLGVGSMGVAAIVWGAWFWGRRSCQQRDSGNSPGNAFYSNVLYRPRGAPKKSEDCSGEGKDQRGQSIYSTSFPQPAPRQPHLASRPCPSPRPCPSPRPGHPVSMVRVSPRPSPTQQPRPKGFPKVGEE
Protocol: 5 μg/ml H7CR 1.3, 4.5 and 7.8 mAbs was used to stain H7CR stable transfectants to show binding specificity (FIG. 4). 10 μg/ml B7-H7mIg fusion protein was also used to stain H7CR CHO transfectants. H7CR mAbs were added to the system to evaluate the blocking capability of H7CR mAbs on B7-H7-H7CR interactions (FIG. 5). Immunohistochemistry staining for H7CR on human tonsil paraffin-embedded section was performed with 4.5 antibody at a concentration of 5 μg/ml using a standard protocol (FIG. 6). For cell surface staining and analysis by flow cytometry, cells were incubated with the indicated mAb for 30 min at 4° C., washed with buffer and analyzed. Expression of H7CR on human and mouse PBMC was evaluated by lineage marker and 1.3 antibody staining (FIG. 7-11). Expression of B7-H7 on activated monocyte-derived DC was evaluated by anti-B7-H7 antibody staining (FIG. 12).

[2] = target: T1, human H7CR (B7-H7 counter-receptor); assay: binding to human H7CR as endogenously expressed on the surface of a cell
[3] = target: T2, H7CR-GFP fusion protein on transfected CHO cells (Homo sapiens (Human), UniProt Q96BF3 23-282); assay: flow cytometry, 5 µg/ml variant on H7CR-GFP transfected CHO cells, anti-hIg PE secondary antibody [row HC1-2, column LC1-2]
T2 construct: not shown: GFP part
T2 sequence: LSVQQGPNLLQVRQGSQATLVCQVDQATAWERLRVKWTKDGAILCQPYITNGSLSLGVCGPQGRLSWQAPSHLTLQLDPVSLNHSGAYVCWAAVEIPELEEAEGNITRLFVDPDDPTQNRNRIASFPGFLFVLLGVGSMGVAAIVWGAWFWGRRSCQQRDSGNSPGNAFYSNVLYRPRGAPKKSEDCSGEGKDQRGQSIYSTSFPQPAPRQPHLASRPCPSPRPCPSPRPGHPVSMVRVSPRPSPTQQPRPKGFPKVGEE
Protocol: (§1) 5 μg/ml antibodies from thirty-six variants were incubated with H7CR-GFP fusion protein transfected CHO cells for 30 min at room temperature. Cells were then washed twice with 2 ml flow cytometry buffer, and resuspended in 100 μl flow cytometry buffer. 1 μl anti-hIg PE secondary antibody (Biolegend) was added and incubated with the cells for 15 mins Samples were then washed and resuspended in 100 μl flow cytometry buffer. Flow Cytometry data was acquired using BD Canto (BD Biosciences) in plate format and analyzed by FlowJo software.

[4] = target: T2, H7CR-GFP fusion protein on transfected …; assay: flow cytometry, 5 µg/ml variant on H7CR-GFP transfected CHO cells, anti-hIg PE secondary antibody [row HC1-2, column LC2-2]
Protocol: as §1

[5] = target: T2, H7CR-GFP fusion protein on transfected …; assay: flow cytometry, 5 µg/ml variant on H7CR-GFP transfected CHO cells, anti-hIg PE secondary antibody [row HC1-1, column LC2-2]
Protocol: as §1

[6] = target: T2, H7CR-GFP fusion protein on transfected …; assay: flow cytometry, 5 µg/ml variant on H7CR-GFP transfected CHO cells, anti-hIg PE secondary antibody [row HC1-1, column LC2-3]
Protocol: as §1

[7] = target: T2, H7CR-GFP fusion protein on transfected …; assay: flow cytometry, 5 µg/ml variant on H7CR-GFP transfected CHO cells, anti-hIg PE secondary antibody [row HC1-2, column LC1-3]
Protocol: as §1

[8] = target: T2, H7CR-GFP fusion protein on transfected …; assay: flow cytometry, 5 µg/ml variant on H7CR-GFP transfected CHO cells, anti-hIg PE secondary antibody [row HC1-1, column LC1-1]
Protocol: as §1

[9] = target: T2, H7CR-GFP fusion protein on transfected …; assay: flow cytometry, 5 µg/ml variant on H7CR-GFP transfected CHO cells, anti-hIg PE secondary antibody [row HC1-1, column LC1-2]
Protocol: as §1

[10] = target: T2, H7CR-GFP fusion protein on transfected …; assay: flow cytometry, 5 µg/ml variant on H7CR-GFP transfected CHO cells, anti-hIg PE secondary antibody [row HC1-2, column LC1-1]
Protocol: as §1

[11] = target: T2, H7CR-GFP fusion protein on transfected …; assay: flow cytometry, 5 µg/ml variant on H7CR-GFP transfected CHO cells, anti-hIg PE secondary antibody [row HC1-1, column LC1-3]
Protocol: as §1

[12] = target: T2, H7CR-GFP fusion protein on transfected …; assay: flow cytometry, 5 µg/ml variant on H7CR-GFP transfected CHO cells, anti-hIg PE secondary antibody [row HC1-1, column LC2-1]
Protocol: as §1

[13] = target: T2, H7CR-GFP fusion protein on transfected …; assay: flow cytometry, 5 µg/ml variant on H7CR-GFP transfected CHO cells, anti-hIg PE secondary antibody [row HC1-2, column LC2-1]
Protocol: as §1

B1: hamster anti-human H7CR antibody clone 7.8 (antibody, V domains shown)
VH: QIQLQESGPGLVKPSQSLSLTCSVTGFSITTGGYYWNWIRQFPGKKLEWMGYIYSSGRTSYNPSLKSRISITRDTSKNQFFLQLNSVTTEDTATYYCADMADKGGWFDYWGQGTLVTVSS
VL: DIVMTQSPSSLTVSAGEKVTISCLSSQSLFSSNTNRNYLSWYLQRPGQSPKLLIYHASTRLTGVPGRFIGSGSGTDFTLTVSTVQAGDLGDYFCQQHYVTPLTFGDGTRLEIK
notes: Hamster monoclonal antibody; also called H7CR7.8
- binding result [1]: binds

B2: 4.5 humanized variant 8 (HC1-2 / LC1-2) (antibody, V domains shown)
VH: QVQLQESGPGLVKPSQTLSLTCTVSGFSITTGGYYWNWIRQHPGKKLEWIGYIYTSGRTSYNPSLKSRVTISRDTSKNQFSLKLSSVTAADTAVYYCADMADKGGWFAYWGQGTLVTVSS
VL: DIVMTQSPDSLAVSLGERATINCKSSQSLFSSNTKRNYLNWYQQKPGQPPKLLIYHASTRLSGVPDRFSGSGSGTDFTLTISSLQAEDVADYFCQQHYETPLTFGDGTRLEIK
notes: Variable domains only; detected with anti-hIg secondary; also called VH1B / VL1B
- binding result [2]: binds
- binding result [3]: binds

B3: 4.5 humanized variant 11 (HC1-2 / LC2-2) (antibody, V domains shown)
VH: QVQLQESGPGLVKPSQTLSLTCTVSGFSITTGGYYWNWIRQHPGKKLEWIGYIYTSGRTSYNPSLKSRVTISRDTSKNQFSLKLSSVTAADTAVYYCADMADKGGWFAYWGQGTLVTVSS
VL: DIVMTQTPLSLPVTPGEPASISCRSSQSLFSSNTKRNYLNWYLQKPGQSPKLLIYHASTRLSGVPDRFSGSGSGTDFTLKISRVEAEDVGDYFCQQHYETPLTFGDGTRLEIK
notes: Variable domains only; detected with anti-hIg secondary; also called VH1B / VL2B
- binding result [2]: binds
- binding result [4]: binds

B4: 4.5 humanized variant 5 (HC1-1 / LC2-2) (antibody, V domains shown)
VH: QVQLQESGPGLVKPSQTLSLTCTVSGFSITTGGYYWSWIRQHPGKGLEWIGYIYTSGRTYYNPSLKSRVTISVDTSKNQFSLKLSSVTAADTAVYYCADMADKGGWFAYWGQGTLVTVSS
VL: DIVMTQTPLSLPVTPGEPASISCRSSQSLFSSNTKRNYLNWYLQKPGQSPKLLIYHASTRLSGVPDRFSGSGSGTDFTLKISRVEAEDVGDYFCQQHYETPLTFGDGTRLEIK
notes: Variable domains only; detected with anti-hIg secondary; also called VH1A / VL2B
- binding result [2]: binds
- binding result [5]: binds

B5: 4.5 humanized variant 6 (HC1-1 / LC2-3) (antibody, V domains shown)
VH: QVQLQESGPGLVKPSQTLSLTCTVSGFSITTGGYYWSWIRQHPGKGLEWIGYIYTSGRTYYNPSLKSRVTISVDTSKNQFSLKLSSVTAADTAVYYCADMADKGGWFAYWGQGTLVTVSS
VL: DIVMTQTPSSLPVTPGEPASISCLSSQSLFSSNTKRNYLNWYLQKPGQSPKLLIYHASTRLSGVPDRFSGSGSGTDFTLKISRVEAEDVGDYFCQQHYETPLTFGDGTRLEIK
notes: Variable domains only; detected with anti-hIg secondary; also called VH1A / VL2C
- binding result [2]: binds
- binding result [6]: binds

B6: 4.5 humanized variant 9 (HC1-2 / LC1-3) (antibody, V domains shown)
VH: QVQLQESGPGLVKPSQTLSLTCTVSGFSITTGGYYWNWIRQHPGKKLEWIGYIYTSGRTSYNPSLKSRVTISRDTSKNQFSLKLSSVTAADTAVYYCADMADKGGWFAYWGQGTLVTVSS
VL: DIVMTQSPDSLAVSLGERATINCLSSQSLFSSNTKRNYLNWYQQKPGQSPKLLIYHASTRLSGVPDRFSGSGSGTDFTLTISSLQAEDVADYFCQQHYETPLTFGDGTRLEIK
notes: Variable domains only; detected with anti-hIg secondary; also called VH1B / VL1C
- binding result [2]: binds
- binding result [7]: binds

B7: 4.5 humanized variant 1 (HC1-1 / LC1-1) (antibody, V domains shown)
VH: QVQLQESGPGLVKPSQTLSLTCTVSGFSITTGGYYWSWIRQHPGKGLEWIGYIYTSGRTYYNPSLKSRVTISVDTSKNQFSLKLSSVTAADTAVYYCADMADKGGWFAYWGQGTLVTVSS
VL: DIVMTQSPDSLAVSLGERATINCKSSQSLFSSNTKRNYLAWYQQKPGQPPKLLIYHASTRESGVPDRFSGSGSGTDFTLTISSLQAEDVAVYYCQQHYETPLTFGQGTRLEIK
notes: Variable domains only; detected with anti-hIg secondary; also called VH1A / VL1A
- binding result [2]: binds
- binding result [8]: binds

B8: 4.5 humanized variant 2 (HC1-1 / LC1-2) (antibody, V domains shown)
VH: QVQLQESGPGLVKPSQTLSLTCTVSGFSITTGGYYWSWIRQHPGKGLEWIGYIYTSGRTYYNPSLKSRVTISVDTSKNQFSLKLSSVTAADTAVYYCADMADKGGWFAYWGQGTLVTVSS
VL: DIVMTQSPDSLAVSLGERATINCKSSQSLFSSNTKRNYLNWYQQKPGQPPKLLIYHASTRLSGVPDRFSGSGSGTDFTLTISSLQAEDVADYFCQQHYETPLTFGDGTRLEIK
notes: Variable domains only; detected with anti-hIg secondary; also called VH1A / VL1B
- binding result [2]: binds
- binding result [9]: binds

B9: 4.5 humanized variant 7 (HC1-2 / LC1-1) (antibody, V domains shown)
VH: QVQLQESGPGLVKPSQTLSLTCTVSGFSITTGGYYWNWIRQHPGKKLEWIGYIYTSGRTSYNPSLKSRVTISRDTSKNQFSLKLSSVTAADTAVYYCADMADKGGWFAYWGQGTLVTVSS
VL: DIVMTQSPDSLAVSLGERATINCKSSQSLFSSNTKRNYLAWYQQKPGQPPKLLIYHASTRESGVPDRFSGSGSGTDFTLTISSLQAEDVAVYYCQQHYETPLTFGQGTRLEIK
notes: Variable domains only; detected with anti-hIg secondary; also called VH1B / VL1A
- binding result [2]: binds
- binding result [10]: binds

B10: 4.5 humanized variant 3 (HC1-1 / LC1-3) (antibody, V domains shown)
VH: QVQLQESGPGLVKPSQTLSLTCTVSGFSITTGGYYWSWIRQHPGKGLEWIGYIYTSGRTYYNPSLKSRVTISVDTSKNQFSLKLSSVTAADTAVYYCADMADKGGWFAYWGQGTLVTVSS
VL: DIVMTQSPDSLAVSLGERATINCLSSQSLFSSNTKRNYLNWYQQKPGQSPKLLIYHASTRLSGVPDRFSGSGSGTDFTLTISSLQAEDVADYFCQQHYETPLTFGDGTRLEIK
notes: Variable domains only; detected with anti-hIg secondary; also called VH1A / VL1C
- binding result [11]: binds
- binding result [2]: binds

B11: 4.5 humanized variant 4 (HC1-1 / LC2-1) (antibody, V domains shown)
VH: QVQLQESGPGLVKPSQTLSLTCTVSGFSITTGGYYWSWIRQHPGKGLEWIGYIYTSGRTYYNPSLKSRVTISVDTSKNQFSLKLSSVTAADTAVYYCADMADKGGWFAYWGQGTLVTVSS
VL: DIVMTQTPLSLPVTPGEPASISCRSSQSLFSSNTKRNYLDWYLQKPGQSPQLLIYHASYRASGVPDRFSGSGSGTDFTLKISRVEAEDVGVYYCQQHYETPLTFGQGTRLEIK
notes: Variable domains only; detected with anti-hIg secondary; also called VH1A / VL2A
- binding result [12]: binds
- binding result [2]: binds

B12: 4.5 humanized variant 10 (HC1-2 / LC2-1) (antibody, V domains shown)
VH: QVQLQESGPGLVKPSQTLSLTCTVSGFSITTGGYYWNWIRQHPGKKLEWIGYIYTSGRTSYNPSLKSRVTISRDTSKNQFSLKLSSVTAADTAVYYCADMADKGGWFAYWGQGTLVTVSS
VL: DIVMTQTPLSLPVTPGEPASISCRSSQSLFSSNTKRNYLDWYLQKPGQSPQLLIYHASYRASGVPDRFSGSGSGTDFTLKISRVEAEDVGVYYCQQHYETPLTFGQGTRLEIK
notes: Variable domains only; detected with anti-hIg secondary; also called VH1B / VL2A
- binding result [13]: binds
- binding result [2]: binds
